The target of assay [1] is T1, His-tagged CEACAM1 (human, UniProt P13688 35-428).
T1 construct: 45 kDa SPR analyte; also called CEACAM1-HIS; CEACAM1 analyte
T1 sequence: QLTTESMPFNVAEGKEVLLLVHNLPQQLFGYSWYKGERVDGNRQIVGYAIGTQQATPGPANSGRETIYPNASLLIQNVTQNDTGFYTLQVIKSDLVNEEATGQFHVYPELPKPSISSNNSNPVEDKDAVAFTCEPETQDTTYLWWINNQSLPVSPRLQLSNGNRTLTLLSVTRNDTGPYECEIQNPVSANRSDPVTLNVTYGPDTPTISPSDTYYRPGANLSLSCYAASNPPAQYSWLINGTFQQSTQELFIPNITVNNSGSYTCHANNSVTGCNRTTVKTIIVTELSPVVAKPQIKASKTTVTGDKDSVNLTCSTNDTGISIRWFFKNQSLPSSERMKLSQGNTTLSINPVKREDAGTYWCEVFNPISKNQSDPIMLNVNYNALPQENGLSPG
Put plainly: SPR multi-cycle. In outline: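 Kon, koff, Kd and relative KD were derived from multi-cycle surface plasmon resonance sensorgrams recorded on a Biacore T200. Runs were at 25° C in HBS-P+ (pH 7.4), with purified antibody at 1 μg/ml captured to ~75 RU on a Series S Protein A chip. His-tagged CEACAM1 was passed over as analyte at 80 μl/min in 2-fold dilutions from 200 to 3.125 nM or from 100 to 1.5625 nM, with 50 or 150 seconds of association, 100 seconds of dissociation and glycine-HCl pH 1.5 for regeneration.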

Assay [2] addresses T2, CEACAM1 on transfected HeLa cells (human, UniProt P13688 35-526).
T2 construct: also called HeLa-CEACAM1; HeLa C1
T2 sequence: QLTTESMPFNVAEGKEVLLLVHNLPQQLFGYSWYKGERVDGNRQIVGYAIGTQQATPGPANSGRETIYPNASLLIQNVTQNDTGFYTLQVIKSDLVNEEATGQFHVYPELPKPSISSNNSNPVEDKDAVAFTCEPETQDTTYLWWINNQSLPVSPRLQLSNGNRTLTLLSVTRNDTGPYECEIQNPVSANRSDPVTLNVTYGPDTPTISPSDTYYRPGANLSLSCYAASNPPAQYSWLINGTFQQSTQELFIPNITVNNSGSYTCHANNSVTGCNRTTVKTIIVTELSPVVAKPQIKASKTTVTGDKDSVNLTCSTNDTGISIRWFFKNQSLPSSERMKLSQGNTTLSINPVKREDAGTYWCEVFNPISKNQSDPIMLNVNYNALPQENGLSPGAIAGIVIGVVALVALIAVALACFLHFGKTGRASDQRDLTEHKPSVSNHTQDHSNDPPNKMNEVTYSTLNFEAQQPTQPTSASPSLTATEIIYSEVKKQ
Briefly: flow cytometry, transfected HeLa. For orientation: In flow cytometry, cells or beads pass a laser one at a time.

In assay [3] the target is T3, CEACAM5 on transfected HeLa cells (human, UniProt P06731 35-685).
T3 construct: whole, on cells; also called HeLa-CEACAM5; HeLa C5
T3 sequence (looked up): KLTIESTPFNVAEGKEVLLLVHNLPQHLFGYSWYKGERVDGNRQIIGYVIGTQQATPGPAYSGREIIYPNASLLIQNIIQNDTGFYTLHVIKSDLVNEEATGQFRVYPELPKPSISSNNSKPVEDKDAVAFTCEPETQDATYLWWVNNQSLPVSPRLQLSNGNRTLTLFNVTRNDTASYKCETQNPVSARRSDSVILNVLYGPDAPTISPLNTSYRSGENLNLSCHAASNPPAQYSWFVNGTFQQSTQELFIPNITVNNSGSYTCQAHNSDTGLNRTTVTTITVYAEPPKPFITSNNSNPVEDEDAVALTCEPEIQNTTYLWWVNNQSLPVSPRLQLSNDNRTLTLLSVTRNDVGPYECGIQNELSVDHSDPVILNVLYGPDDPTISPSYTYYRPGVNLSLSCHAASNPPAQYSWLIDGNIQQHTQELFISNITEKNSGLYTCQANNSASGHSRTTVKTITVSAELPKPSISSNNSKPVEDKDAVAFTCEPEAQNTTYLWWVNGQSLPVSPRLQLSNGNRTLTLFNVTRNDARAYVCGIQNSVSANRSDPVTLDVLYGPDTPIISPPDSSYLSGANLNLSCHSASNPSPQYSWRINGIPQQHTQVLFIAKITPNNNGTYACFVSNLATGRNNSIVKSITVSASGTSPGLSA
Briefly: flow cytometry, transfected HeLa.

Assay [4] concerns the target T4, CEACAM6 on transfected HeLa cells (human, UniProt P40199 35-320).
T4 construct: whole, on cells; also called HeLa-CEACAM6; HeLa C6
T4 sequence (looked up): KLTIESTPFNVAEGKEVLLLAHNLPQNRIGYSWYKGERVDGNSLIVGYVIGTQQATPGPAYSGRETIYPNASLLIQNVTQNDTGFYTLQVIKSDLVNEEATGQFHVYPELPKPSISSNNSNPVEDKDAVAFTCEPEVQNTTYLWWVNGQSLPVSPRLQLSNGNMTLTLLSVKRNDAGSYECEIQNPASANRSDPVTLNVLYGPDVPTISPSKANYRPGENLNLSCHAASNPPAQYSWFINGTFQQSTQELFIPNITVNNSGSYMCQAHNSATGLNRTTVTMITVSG
Briefly: flow cytometry, transfected HeLa.

For assay [5], the target named is T5, GST-CEACAM1 (human, UniProt P13688 35-141, limits assumed).
T5 construct: also called human CEACAM1-GST protein
T5 sequence: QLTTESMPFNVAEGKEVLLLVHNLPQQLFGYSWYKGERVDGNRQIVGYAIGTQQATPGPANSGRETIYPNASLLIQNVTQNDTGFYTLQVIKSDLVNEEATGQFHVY
Put plainly: competition ELISA vs parental murine antibody. As to the method: The binding of the purified antibodies to human CEACAM1 was assessed in a competition ELISA assay. Nunc Immuno MaxiSorp 96 well flat bottom microtitre plates were pre-coated with 1 μg/ml of GST-CEACAM1 in 1×PBS, overnight at 4° C. The following day the plates were blocked for 1 hour at room temperature (“RT”) with 2% BSA/PBS before washing 3× with PBST pH 7.4. A 3-fold dilution series of the chimeric antibody chimeric antibody VH0/Vκ0, an irrelevant IgG4 antibody, and the humanized CEACAM1 antibodies from 100 μg/ml to 0.07 or 0.002 μg/ml were pre-mixed with a constant concentration of parental murine antibody (0.45 μg/ml final concentration), added to the plate and incubated for 1 hour at room temperature. Following 3×PBST washes, the binding of the parental murine CEACAM1 antibody was detected with an anti-mouse-HRP and TMB substrate. The reaction was stopped with 3 M HCl, absorbance read at 450 nm on a Dynex Technologies MRX TC II plate reader and the binding curves plotted. The binding of the humanized CEACAM antibody variants to CEACAM1 was compared to the chimeric antibody (VHO/Vκ0), which was included on each plate.
For orientation: An ELISA detects its analyte on a solid surface through an enzyme-linked reagent.

The target in assay [6] is T5, GST-CEACAM1. Put plainly: competition ELISA vs parental murine antibody, experiment 1.
Assay [7] addresses T5, GST-CEACAM1. Briefly: competition ELISA vs parental murine antibody, experiment 2.

B1: VH0/Vκ0 S29A (antibody, IgG4, V domains shown)
VH: EVQLVESGGDLVKPGGSLKLACAASGFIFSSHGMSWVRQTPDKRLEWVATISSGGTYTYYPDSVKGRFTISRDNDKNTLYLQMNSLKSEDTAMYYCARHDFDYDAAWFAYWGQGTLVTVSS
VL: QIVLTQSPALMSASPGVKVTMTCSANSAVSYMYWYRQKPRSSPKPWIYLTSNLASGVPARFSGSGSGTSYSLTISSMEAEDAATYYCQQWSSNPPTFGSGTKLEIK
notes: aglycosylated chimeric, IgG4 (S241P), kappa
One may read the Kd as the constant that tells how readily two partners part at equilibrium. The low end stands for tighter binding, the high end for weaker binding. A word on the koff: it is the rate constant with which the complex falls apart. High values mean fast dissociation, low ones slow dissociation. As usually defined, the kon is a measure of how fast the partners come together. B1: in assay [1], the Kd was 110 nM, the koff worked out at 0.0277 s⁻¹, the kon came to 251000 M⁻¹ s⁻¹ and the “relative KD” value was 1.05. The “relative amount of cells bound” value in assay [2] turned out to be 77.9. Moreover, the “relative amount of cells bound” value in assay [3] amounted to 9.82. The “relative amount of cells bound” value in assay [4] is 0. For the same molecule, the average relative IC50 in assay [5] stood at 0.84. For the same molecule, in assay [6], the relative IC50 amounted to 0.96. For the same molecule, the relative IC50 in assay [7] is 0.72.
